Test results taken from article PMC4644428.

Columns and labels:
[1] = biological target: CRP (wild type) (UniProt P0ACJ8 1-210); assay: fluorescence polarization
[2] = biological target: CRPG (UniProt P0ACJ8 1-210, R124N;T128C;S129T); assay: fluorescence polarization

B1: 26-mer CRP consensus (dsDNA)
DNA 1: GTAAATGTGATGTACATCACATGGAT
DNA 2: ATCCATGTGATGTACATCACATTTAC
binding result [1]: binds
binding result [2]: binds
